Results reported in patent US20100331250A1.

Assays:
human VEGF165 (human) [1] = target: human VEGF165 (human) (UniProt P15692); assay: cell-based or functional assay
human VEGF165 (human) [2] = target: human VEGF165 (human) (UniProt P15692); assay: quantitative ELISA; serial concentrations of fusion protein mixed with 40 pM human VEGF165, detection with anti-human IgG Fc-HRP

Chain of UniProt P15692 (P15692 other isoform, or with tags, fused parts or gaps limits assumed): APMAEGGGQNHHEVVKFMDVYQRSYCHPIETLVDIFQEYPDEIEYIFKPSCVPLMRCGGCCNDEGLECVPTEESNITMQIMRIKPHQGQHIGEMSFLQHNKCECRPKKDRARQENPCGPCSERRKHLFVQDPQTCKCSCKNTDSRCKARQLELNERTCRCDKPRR

VEGF-Trap (Fc fusion)
growth activity of VEGF on HUVEC (CCK-8, endothelial cell growth assay) (human VEGF165 (human) [1]): 28 pM
inhibitory activity against VEGF (HUVEC growth assay) (human VEGF165 (human) [1]): 14 pM
EC50 (human VEGF165 (human) [2]): 0.136 µg/mL
